Numbered stars: 1 amine (or outer) side, 2 acyl side, 3 side chain; on linkers, the order of the positions; unused ones are H or OH. Bridge positions count the residues as written; N and C are the ends. Side chains are listed from the residue outwards. Ends that are not written are not given here. * marks the point of attachment. C20 diacid = O=C(O)CCCCCCCCCCCCCCCCCCC(=O)*; γGlu = O=C(O)[C@H](CCC(=O)[*:2])N[*:1]
T1: human calcitonin receptor (human, UniProt P30988 25-474)
T1 sequence (looked up): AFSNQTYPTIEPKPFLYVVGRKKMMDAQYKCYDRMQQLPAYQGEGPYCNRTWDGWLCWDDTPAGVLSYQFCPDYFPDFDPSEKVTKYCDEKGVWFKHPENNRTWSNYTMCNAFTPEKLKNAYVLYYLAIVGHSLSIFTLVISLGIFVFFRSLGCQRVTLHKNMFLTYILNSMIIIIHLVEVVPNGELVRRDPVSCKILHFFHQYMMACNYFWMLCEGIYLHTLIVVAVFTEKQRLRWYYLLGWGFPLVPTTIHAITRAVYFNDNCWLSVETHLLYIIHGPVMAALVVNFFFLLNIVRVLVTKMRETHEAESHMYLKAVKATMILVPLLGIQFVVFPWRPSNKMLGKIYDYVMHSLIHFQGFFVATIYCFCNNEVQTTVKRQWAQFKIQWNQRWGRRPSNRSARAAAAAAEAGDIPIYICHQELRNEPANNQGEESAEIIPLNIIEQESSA

B1: N^α1-[(4S)-4-carboxy-4-(19-carboxynonadecanoylamino)butanoyl]-[Glu14,Arg17,Pro21,Pro27,Asp35,Pro37]-h-amylin (peptide)
peptide: {C20 diacid-γGlu}-KCNTATCATQRLAEFLRHSSPNFGAIPSSTNVGSDTP-NH2
modifications: disulfide 2-7
SMILES: CC[C@H](C)[C@H](NC(=O)[C@H](C)NC(=O)CNC(=O)[C@H](Cc1ccccc1)NC(=O)[C@H](CC(N)=O)NC(=O)[C@@H]1CCCN1C(=O)[C@H](CO)NC(=O)[C@H](CO)NC(=O)[C@H](Cc1c[nH]cn1)NC(=O)[C@H](CCCNC(=N)N)NC(=O)[C@H](CC(C)C)NC(=O)[C@H](Cc1ccccc1)NC(=O)[C@H](CCC(=O)O)NC(=O)[C@H](C)NC(=O)[C@H](CC(C)C)NC(=O)[C@H](CCCNC(=N)N)NC(=O)[C@H](CCC(N)=O)NC(=O)[C@@H](NC(=O)[C@H](C)NC(=O)[C@@H]1CSSC[C@H](NC(=O)[C@H](CCCCN)NC(=O)CC[C@H](NC(=O)CCCCCCCCCCCCCCCCCCC(=O)O)C(=O)O)C(=O)N[C@@H](CC(N)=O)C(=O)N[C@@H]([C@@H](C)O)C(=O)N[C@@H](C)C(=O)N[C@@H]([C@@H](C)O)C(=O)N1)[C@@H](C)O)C(=O)N1CCC[C@H]1C(=O)N[C@@H](CO)C(=O)N[C@@H](CO)C(=O)N[C@H](C(=O)N[C@@H](CC(N)=O)C(=O)N[C@H](C(=O)NCC(=O)N[C@@H](CO)C(=O)N[C@@H](CC(=O)O)C(=O)N[C@H](C(=O)N1CCC[C@H]1C(N)=O)[C@@H](C)O)C(C)C)[C@@H](C)O
notes: Synthetic acylated analogue of human amylin; also called compound 11
B2: N^ε1-[(4S)-4-carboxy-4-(19-carboxynonadecanoylamino)butanoyl]-[His14,Arg17,Pro21,Pro27,Pro34,Pro37]-h-amylin (peptide)
peptide: K([γGlu-C20 diacid])CNTATCATQRLAHFLRHSSPNFGAIPSSTNVGPNTP-NH2
modifications: disulfide 2-7; N-terminus assumed
SMILES: CC[C@H](C)[C@H](NC(=O)[C@H](C)NC(=O)CNC(=O)[C@H](Cc1ccccc1)NC(=O)[C@H](CC(N)=O)NC(=O)[C@@H]1CCCN1C(=O)[C@H](CO)NC(=O)[C@H](CO)NC(=O)[C@H](Cc1c[nH]cn1)NC(=O)[C@H](CCCNC(=N)N)NC(=O)[C@H](CC(C)C)NC(=O)[C@H](Cc1ccccc1)NC(=O)[C@H](Cc1c[nH]cn1)NC(=O)[C@H](C)NC(=O)[C@H](CC(C)C)NC(=O)[C@H](CCCNC(=N)N)NC(=O)[C@H](CCC(N)=O)NC(=O)[C@@H](NC(=O)[C@H](C)NC(=O)[C@@H]1CSSC[C@H](NC(=O)[C@@H](N)CCCCNC(=O)CC[C@H](NC(=O)CCCCCCCCCCCCCCCCCCC(=O)O)C(=O)O)C(=O)N[C@@H](CC(N)=O)C(=O)N[C@@H]([C@@H](C)O)C(=O)N[C@@H](C)C(=O)N[C@@H]([C@@H](C)O)C(=O)N1)[C@@H](C)O)C(=O)N1CCC[C@H]1C(=O)N[C@@H](CO)C(=O)N[C@@H](CO)C(=O)N[C@H](C(=O)N[C@@H](CC(N)=O)C(=O)N[C@H](C(=O)NCC(=O)N1CCC[C@H]1C(=O)N[C@@H](CC(N)=O)C(=O)N[C@H](C(=O)N1CCC[C@H]1C(N)=O)[C@@H](C)O)C(C)C)[C@@H](C)O
notes: Synthetic acylated analogue of human amylin
B3: N^α1-[(4S)-4-carboxy-4-[[(4S)-4-carboxy-4-(19-carboxynonadecanoylamino)butanoyl]amino]butanoyl]-[Glu14,Arg17,Pro21,Pro27,Pro37]-h-amylin (peptide)
peptide: {C20 diacid-γGlu-γGlu}-KCNTATCATQRLAEFLRHSSPNFGAIPSSTNVGSNTP-NH2
modifications: disulfide 2-7
SMILES: CC[C@H](C)[C@H](NC(=O)[C@H](C)NC(=O)CNC(=O)[C@H](Cc1ccccc1)NC(=O)[C@H](CC(N)=O)NC(=O)[C@@H]1CCCN1C(=O)[C@H](CO)NC(=O)[C@H](CO)NC(=O)[C@H](Cc1c[nH]cn1)NC(=O)[C@H](CCCNC(=N)N)NC(=O)[C@H](CC(C)C)NC(=O)[C@H](Cc1ccccc1)NC(=O)[C@H](CCC(=O)O)NC(=O)[C@H](C)NC(=O)[C@H](CC(C)C)NC(=O)[C@H](CCCNC(=N)N)NC(=O)[C@H](CCC(N)=O)NC(=O)[C@@H](NC(=O)[C@H](C)NC(=O)[C@@H]1CSSC[C@H](NC(=O)[C@H](CCCCN)NC(=O)CC[C@H](NC(=O)CC[C@H](NC(=O)CCCCCCCCCCCCCCCCCCC(=O)O)C(=O)O)C(=O)O)C(=O)N[C@@H](CC(N)=O)C(=O)N[C@@H]([C@@H](C)O)C(=O)N[C@@H](C)C(=O)N[C@@H]([C@@H](C)O)C(=O)N1)[C@@H](C)O)C(=O)N1CCC[C@H]1C(=O)N[C@@H](CO)C(=O)N[C@@H](CO)C(=O)N[C@H](C(=O)N[C@@H](CC(N)=O)C(=O)N[C@H](C(=O)NCC(=O)N[C@@H](CO)C(=O)N[C@@H](CC(N)=O)C(=O)N[C@H](C(=O)N1CCC[C@H]1C(N)=O)[C@@H](C)O)C(C)C)[C@@H](C)O
notes: Synthetic acylated analogue of human amylin; also called compound 14
B4: N^α1-[(4S)-4-carboxy-4-(19-carboxynonadecanoylamino)butanoyl]-[Glu14,Arg17,Pro21,Pro27,Pro37]-h-amylin (peptide)
peptide: {C20 diacid-γGlu}-KCNTATCATQRLAEFLRHSSPNFGAIPSSTNVGSNTP-NH2
modifications: disulfide 2-7
SMILES: CC[C@H](C)[C@H](NC(=O)[C@H](C)NC(=O)CNC(=O)[C@H](Cc1ccccc1)NC(=O)[C@H](CC(N)=O)NC(=O)[C@@H]1CCCN1C(=O)[C@H](CO)NC(=O)[C@H](CO)NC(=O)[C@H](Cc1c[nH]cn1)NC(=O)[C@H](CCCNC(=N)N)NC(=O)[C@H](CC(C)C)NC(=O)[C@H](Cc1ccccc1)NC(=O)[C@H](CCC(=O)O)NC(=O)[C@H](C)NC(=O)[C@H](CC(C)C)NC(=O)[C@H](CCCNC(=N)N)NC(=O)[C@H](CCC(N)=O)NC(=O)[C@@H](NC(=O)[C@H](C)NC(=O)[C@@H]1CSSC[C@H](NC(=O)[C@H](CCCCN)NC(=O)CC[C@H](NC(=O)CCCCCCCCCCCCCCCCCCC(=O)O)C(=O)O)C(=O)N[C@@H](CC(N)=O)C(=O)N[C@@H]([C@@H](C)O)C(=O)N[C@@H](C)C(=O)N[C@@H]([C@@H](C)O)C(=O)N1)[C@@H](C)O)C(=O)N1CCC[C@H]1C(=O)N[C@@H](CO)C(=O)N[C@@H](CO)C(=O)N[C@H](C(=O)N[C@@H](CC(N)=O)C(=O)N[C@H](C(=O)NCC(=O)N[C@@H](CO)C(=O)N[C@@H](CC(N)=O)C(=O)N[C@H](C(=O)N1CCC[C@H]1C(N)=O)[C@@H](C)O)C(C)C)[C@@H](C)O
notes: Synthetic acylated analogue of human amylin; also called compound 8
B5: N^ε1-[(4S)-4-carboxy-4-(19-carboxynonadecanoylamino)butanoyl]-[Glu14,Arg17,Pro21,Pro27,Pro34,Pro37]-h-amylin (peptide)
peptide: K([γGlu-C20 diacid])CNTATCATQRLAEFLRHSSPNFGAIPSSTNVGPNTP-NH2
modifications: disulfide 2-7; N-terminus assumed
SMILES: CC[C@H](C)[C@H](NC(=O)[C@H](C)NC(=O)CNC(=O)[C@H](Cc1ccccc1)NC(=O)[C@H](CC(N)=O)NC(=O)[C@@H]1CCCN1C(=O)[C@H](CO)NC(=O)[C@H](CO)NC(=O)[C@H](Cc1c[nH]cn1)NC(=O)[C@H](CCCNC(=N)N)NC(=O)[C@H](CC(C)C)NC(=O)[C@H](Cc1ccccc1)NC(=O)[C@H](CCC(=O)O)NC(=O)[C@H](C)NC(=O)[C@H](CC(C)C)NC(=O)[C@H](CCCNC(=N)N)NC(=O)[C@H](CCC(N)=O)NC(=O)[C@@H](NC(=O)[C@H](C)NC(=O)[C@@H]1CSSC[C@H](NC(=O)[C@@H](N)CCCCNC(=O)CC[C@H](NC(=O)CCCCCCCCCCCCCCCCCCC(=O)O)C(=O)O)C(=O)N[C@@H](CC(N)=O)C(=O)N[C@@H]([C@@H](C)O)C(=O)N[C@@H](C)C(=O)N[C@@H]([C@@H](C)O)C(=O)N1)[C@@H](C)O)C(=O)N1CCC[C@H]1C(=O)N[C@@H](CO)C(=O)N[C@@H](CO)C(=O)N[C@H](C(=O)N[C@@H](CC(N)=O)C(=O)N[C@H](C(=O)NCC(=O)N1CCC[C@H]1C(=O)N[C@@H](CC(N)=O)C(=O)N[C@H](C(=O)N1CCC[C@H]1C(N)=O)[C@@H](C)O)C(C)C)[C@@H](C)O
notes: as for B2

Biological target: T1, human calcitonin receptor
Test: cell-based or functional assay

hCTR funct. EC50 (CRE luciferase reporter, BHK cells) | Binder
0.112 nM | B1
0.04 nM | B2
0.238 nM | B3
0.087 nM | B4
0.09 nM | B5
